According to patent US20140087995A1 (published 2014):
Numbered stars: 1 amine (or outer) side, 2 acyl side, 3 side chain; on linkers, the order of the positions; unused ones are H or OH. Bridge positions count the residues as written; N and C are the ends. Side chains are listed from the residue outwards. Ends that are not written are not given here. * marks the point of attachment. C20 diacid = O=C(O)CCCCCCCCCCCCCCCCCCC(=O)*; γGlu = O=C(O)[C@H](CCC(=O)[*:2])N[*:1]

T1: human amylin receptor (human, UniProt P30988 25-474; O60896 24-148, limits assumed)
T1 construct: whole, on cells; Calcitonin receptor plus RAMP-3 gives the amylin 3(a) receptor; membranes of Amylin 3(a)/CRE-luc cells were used; also called hAmylin-R; hAmylinR
T1 sequence (looked up) 1: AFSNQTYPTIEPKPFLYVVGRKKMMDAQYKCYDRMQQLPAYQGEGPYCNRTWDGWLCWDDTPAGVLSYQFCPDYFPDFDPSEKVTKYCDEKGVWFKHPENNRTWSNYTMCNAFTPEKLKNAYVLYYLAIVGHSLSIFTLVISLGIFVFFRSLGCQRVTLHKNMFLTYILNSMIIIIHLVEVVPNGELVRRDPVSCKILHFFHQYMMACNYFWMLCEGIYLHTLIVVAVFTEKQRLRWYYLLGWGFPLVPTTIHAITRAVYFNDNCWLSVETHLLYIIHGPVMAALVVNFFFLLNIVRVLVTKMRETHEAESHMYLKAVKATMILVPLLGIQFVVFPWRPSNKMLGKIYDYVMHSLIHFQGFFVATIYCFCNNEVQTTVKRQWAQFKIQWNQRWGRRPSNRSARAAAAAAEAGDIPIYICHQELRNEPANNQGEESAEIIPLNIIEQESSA
T1 sequence (looked up) 2: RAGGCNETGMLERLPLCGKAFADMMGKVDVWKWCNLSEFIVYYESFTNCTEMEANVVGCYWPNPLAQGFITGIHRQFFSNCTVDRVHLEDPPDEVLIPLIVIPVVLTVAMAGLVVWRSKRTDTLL

B1: N^ε1-[(4S)-4-carboxy-4-(19-carboxynonadecanoylamino)butanoyl]-[Asp14,Arg17,Pro21,Pro27,Pro34,Glu35]-h-amylin (peptide)
peptide: K([γGlu-C20 diacid])CNTATCATQRLADFLRHSSPNFGAIPSSTNVGPETY-NH2
modifications: disulfide 2-7; N-terminus assumed
SMILES: CC[C@H](C)[C@H](NC(=O)[C@H](C)NC(=O)CNC(=O)[C@H](Cc1ccccc1)NC(=O)[C@H](CC(N)=O)NC(=O)[C@@H]1CCCN1C(=O)[C@H](CO)NC(=O)[C@H](CO)NC(=O)[C@H](Cc1c[nH]cn1)NC(=O)[C@H](CCCNC(=N)N)NC(=O)[C@H](CC(C)C)NC(=O)[C@H](Cc1ccccc1)NC(=O)[C@H](CC(=O)O)NC(=O)[C@H](C)NC(=O)[C@H](CC(C)C)NC(=O)[C@H](CCCNC(=N)N)NC(=O)[C@H](CCC(N)=O)NC(=O)[C@@H](NC(=O)[C@H](C)NC(=O)[C@@H]1CSSC[C@H](NC(=O)[C@@H](N)CCCCNC(=O)CC[C@H](NC(=O)CCCCCCCCCCCCCCCCCCC(=O)O)C(=O)O)C(=O)N[C@@H](CC(N)=O)C(=O)N[C@@H]([C@@H](C)O)C(=O)N[C@@H](C)C(=O)N[C@@H]([C@@H](C)O)C(=O)N1)[C@@H](C)O)C(=O)N1CCC[C@H]1C(=O)N[C@@H](CO)C(=O)N[C@@H](CO)C(=O)N[C@H](C(=O)N[C@@H](CC(N)=O)C(=O)N[C@H](C(=O)NCC(=O)N1CCC[C@H]1C(=O)N[C@@H](CCC(=O)O)C(=O)N[C@H](C(=O)N[C@@H](Cc1ccc(O)cc1)C(N)=O)[C@@H](C)O)C(C)C)[C@@H](C)O
notes: also called 14D, 17R, 21P, 27P, 34P, 35E
B2: N^ε1-[(4S)-4-carboxy-4-(19-carboxynonadecanoylamino)butanoyl]-[Glu14,Arg17,Pro21,Pro27,Pro34,Glu35]-h-amylin (peptide)
peptide: K([γGlu-C20 diacid])CNTATCATQRLAEFLRHSSPNFGAIPSSTNVGPETY-NH2
modifications: disulfide 2-7; N-terminus assumed
SMILES: CC[C@H](C)[C@H](NC(=O)[C@H](C)NC(=O)CNC(=O)[C@H](Cc1ccccc1)NC(=O)[C@H](CC(N)=O)NC(=O)[C@@H]1CCCN1C(=O)[C@H](CO)NC(=O)[C@H](CO)NC(=O)[C@H](Cc1c[nH]cn1)NC(=O)[C@H](CCCNC(=N)N)NC(=O)[C@H](CC(C)C)NC(=O)[C@H](Cc1ccccc1)NC(=O)[C@H](CCC(=O)O)NC(=O)[C@H](C)NC(=O)[C@H](CC(C)C)NC(=O)[C@H](CCCNC(=N)N)NC(=O)[C@H](CCC(N)=O)NC(=O)[C@@H](NC(=O)[C@H](C)NC(=O)[C@@H]1CSSC[C@H](NC(=O)[C@@H](N)CCCCNC(=O)CC[C@H](NC(=O)CCCCCCCCCCCCCCCCCCC(=O)O)C(=O)O)C(=O)N[C@@H](CC(N)=O)C(=O)N[C@@H]([C@@H](C)O)C(=O)N[C@@H](C)C(=O)N[C@@H]([C@@H](C)O)C(=O)N1)[C@@H](C)O)C(=O)N1CCC[C@H]1C(=O)N[C@@H](CO)C(=O)N[C@@H](CO)C(=O)N[C@H](C(=O)N[C@@H](CC(N)=O)C(=O)N[C@H](C(=O)NCC(=O)N1CCC[C@H]1C(=O)N[C@@H](CCC(=O)O)C(=O)N[C@H](C(=O)N[C@@H](Cc1ccc(O)cc1)C(N)=O)[C@@H](C)O)C(C)C)[C@@H](C)O
notes: also called 14E, 17R, 21P, 27P, 34P, 35E
B3: N^ε1-[(4S)-4-carboxy-4-(19-carboxynonadecanoylamino)butanoyl]-[Glu14,Arg17,Pro21,Pro27,His34,Glu35]-h-amylin (peptide)
peptide: K([γGlu-C20 diacid])CNTATCATQRLAEFLRHSSPNFGAIPSSTNVGHETY-NH2
modifications: disulfide 2-7; N-terminus assumed
SMILES: CC[C@H](C)[C@H](NC(=O)[C@H](C)NC(=O)CNC(=O)[C@H](Cc1ccccc1)NC(=O)[C@H](CC(N)=O)NC(=O)[C@@H]1CCCN1C(=O)[C@H](CO)NC(=O)[C@H](CO)NC(=O)[C@H](Cc1c[nH]cn1)NC(=O)[C@H](CCCNC(=N)N)NC(=O)[C@H](CC(C)C)NC(=O)[C@H](Cc1ccccc1)NC(=O)[C@H](CCC(=O)O)NC(=O)[C@H](C)NC(=O)[C@H](CC(C)C)NC(=O)[C@H](CCCNC(=N)N)NC(=O)[C@H](CCC(N)=O)NC(=O)[C@@H](NC(=O)[C@H](C)NC(=O)[C@@H]1CSSC[C@H](NC(=O)[C@@H](N)CCCCNC(=O)CC[C@H](NC(=O)CCCCCCCCCCCCCCCCCCC(=O)O)C(=O)O)C(=O)N[C@@H](CC(N)=O)C(=O)N[C@@H]([C@@H](C)O)C(=O)N[C@@H](C)C(=O)N[C@@H]([C@@H](C)O)C(=O)N1)[C@@H](C)O)C(=O)N1CCC[C@H]1C(=O)N[C@@H](CO)C(=O)N[C@@H](CO)C(=O)N[C@H](C(=O)N[C@@H](CC(N)=O)C(=O)N[C@H](C(=O)NCC(=O)N[C@@H](Cc1c[nH]cn1)C(=O)N[C@@H](CCC(=O)O)C(=O)N[C@H](C(=O)N[C@@H](Cc1ccc(O)cc1)C(N)=O)[C@@H](C)O)C(C)C)[C@@H](C)O
notes: also called 14E, 17R, 21P, 27P, 34H, 35E
B4: N^ε1-[(4S)-4-carboxy-4-(19-carboxynonadecanoylamino)butanoyl]-[Glu14,Arg17,Pro21,Pro27,Arg34,Glu35]-h-amylin (peptide)
peptide: K([γGlu-C20 diacid])CNTATCATQRLAEFLRHSSPNFGAIPSSTNVGRETY-NH2
modifications: disulfide 2-7; N-terminus assumed
SMILES: CC[C@H](C)[C@H](NC(=O)[C@H](C)NC(=O)CNC(=O)[C@H](Cc1ccccc1)NC(=O)[C@H](CC(N)=O)NC(=O)[C@@H]1CCCN1C(=O)[C@H](CO)NC(=O)[C@H](CO)NC(=O)[C@H](Cc1c[nH]cn1)NC(=O)[C@H](CCCNC(=N)N)NC(=O)[C@H](CC(C)C)NC(=O)[C@H](Cc1ccccc1)NC(=O)[C@H](CCC(=O)O)NC(=O)[C@H](C)NC(=O)[C@H](CC(C)C)NC(=O)[C@H](CCCNC(=N)N)NC(=O)[C@H](CCC(N)=O)NC(=O)[C@@H](NC(=O)[C@H](C)NC(=O)[C@@H]1CSSC[C@H](NC(=O)[C@@H](N)CCCCNC(=O)CC[C@H](NC(=O)CCCCCCCCCCCCCCCCCCC(=O)O)C(=O)O)C(=O)N[C@@H](CC(N)=O)C(=O)N[C@@H]([C@@H](C)O)C(=O)N[C@@H](C)C(=O)N[C@@H]([C@@H](C)O)C(=O)N1)[C@@H](C)O)C(=O)N1CCC[C@H]1C(=O)N[C@@H](CO)C(=O)N[C@@H](CO)C(=O)N[C@H](C(=O)N[C@@H](CC(N)=O)C(=O)N[C@H](C(=O)NCC(=O)N[C@@H](CCCNC(=N)N)C(=O)N[C@@H](CCC(=O)O)C(=O)N[C@H](C(=O)N[C@@H](Cc1ccc(O)cc1)C(N)=O)[C@@H](C)O)C(C)C)[C@@H](C)O
notes: also called 14E, 17R, 21P, 27P, 34R, 35E
B5: N^ε1-[(4S)-4-carboxy-4-(19-carboxynonadecanoylamino)butanoyl]-[Glu14,Arg17,Pro21,Pro27,Pro34,Arg35]-h-amylin (peptide)
peptide: K([γGlu-C20 diacid])CNTATCATQRLAEFLRHSSPNFGAIPSSTNVGPRTY-NH2
modifications: disulfide 2-7; N-terminus assumed
SMILES: CC[C@H](C)[C@H](NC(=O)[C@H](C)NC(=O)CNC(=O)[C@H](Cc1ccccc1)NC(=O)[C@H](CC(N)=O)NC(=O)[C@@H]1CCCN1C(=O)[C@H](CO)NC(=O)[C@H](CO)NC(=O)[C@H](Cc1c[nH]cn1)NC(=O)[C@H](CCCNC(=N)N)NC(=O)[C@H](CC(C)C)NC(=O)[C@H](Cc1ccccc1)NC(=O)[C@H](CCC(=O)O)NC(=O)[C@H](C)NC(=O)[C@H](CC(C)C)NC(=O)[C@H](CCCNC(=N)N)NC(=O)[C@H](CCC(N)=O)NC(=O)[C@@H](NC(=O)[C@H](C)NC(=O)[C@@H]1CSSC[C@H](NC(=O)[C@@H](N)CCCCNC(=O)CC[C@H](NC(=O)CCCCCCCCCCCCCCCCCCC(=O)O)C(=O)O)C(=O)N[C@@H](CC(N)=O)C(=O)N[C@@H]([C@@H](C)O)C(=O)N[C@@H](C)C(=O)N[C@@H]([C@@H](C)O)C(=O)N1)[C@@H](C)O)C(=O)N1CCC[C@H]1C(=O)N[C@@H](CO)C(=O)N[C@@H](CO)C(=O)N[C@H](C(=O)N[C@@H](CC(N)=O)C(=O)N[C@H](C(=O)NCC(=O)N1CCC[C@H]1C(=O)N[C@@H](CCCNC(=N)N)C(=O)N[C@H](C(=O)N[C@@H](Cc1ccc(O)cc1)C(N)=O)[C@@H](C)O)C(C)C)[C@@H](C)O
notes: also called 14E, 17R, 21P, 27P, 34P, 35R
B6: N^ε1-[(4S)-4-carboxy-4-(19-carboxynonadecanoylamino)butanoyl]-[Glu14,Arg17,Pro21,Pro27,Pro34,His35]-h-amylin (peptide)
peptide: K([γGlu-C20 diacid])CNTATCATQRLAEFLRHSSPNFGAIPSSTNVGPHTY-NH2
modifications: disulfide 2-7
notes: also called 14E, 17R, 21P, 27P, 34P, 35H

biological target: T1, human amylin receptor; assay: SPA competition binding, displacement of 125I-rat amylin from membranes with human amylin 3(a) receptor (Assay V)
In short: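 Membranes from BHK Amylin 3(a)/CRE-luc cells (35 ng/μL final) were mixed with SPA beads and test compounds in 50 mM Hepes pH 7.4 with 1 mM CaCl2, 5 mM MgCl₂, 0.1% OA and 0.02% Tween20. Incubation ran 120 min at 25° C with shaking; IC₅₀ came from one-site competition fitting.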

Binder | IC50 [nM]
B1 | 0.196
B2 | 0.14
B3 | 0.387
B4 | 0.232
B5 | 0.163
B6 | 0.179
